From US20220259593A1, “CONTROL OF MAMMALIAN GENE DOSAGE USING CRISPR” (The Regents of the University of California, priority 2019, published 2022)
Substitutions are numbered along the chain they refer to.

B1: cr049 (nucleic acid)
guide: GTGTTAGAGCTAAGCTGGAAACAGCATAGCAAGTTTAAATAAGGCTAGTCCGTTATCAACTTGAAAAAGTGGCACCGAGTCGGTGCT
modifications: listed as DNA, chemistry not fully specified
B2: cr381 (nucleic acid)
guide: B1 guide with G3T, T5A, A41T, A47C, A65C
modifications: listed as DNA, chemistry not fully specified
B3: cr482 (nucleic acid)
guide: B1 guide with G3T, T5A, A47T, G52C
modifications: listed as DNA, chemistry not fully specified
B4: cr068 (nucleic acid)
guide: B1 guide with G3T, T4A, T5G
modifications: listed as DNA, chemistry not fully specified
B5: cr271 (nucleic acid)
guide: B1 guide with G3T, T5A, C73T, A74C, T84G, G85A
modifications: listed as DNA, chemistry not fully specified
B6: cr674 (nucleic acid)
guide: B1 guide with G3T, T5A, G43C, C51G, A59T, T70A
modifications: listed as DNA, chemistry not fully specified
B7: cr572 (nucleic acid)
guide: B1 guide with G3T, T5A, G43C, G44C, C45G, T46A, G48C, C51G
modifications: listed as DNA, chemistry not fully specified
B8: cr225 (nucleic acid)
guide: B1 guide with G3T, T5A, G43T, G48T
modifications: listed as DNA, chemistry not fully specified
B9: cr657 (nucleic acid)
guide: B1 guide with G3T, T5A, C50G
modifications: listed as DNA, chemistry not fully specified
B10: cr735 (nucleic acid)
guide: B1 guide with G3T, T5A, G33C, G71C
modifications: listed as DNA, chemistry not fully specified
B11: cr608 (nucleic acid)
guide: B1 guide with G3T, T5A, G33C, C45G, G48C
modifications: listed as DNA, chemistry not fully specified
B12: cr903 (nucleic acid)
guide: B1 guide with G3T, T5A, G52C, G79A
modifications: listed as DNA, chemistry not fully specified
B13: cr975 (nucleic acid)
guide: B1 guide with G3T, T5A, G33C, A42T
modifications: listed as DNA, chemistry not fully specified
B14: cr874 (nucleic acid)
guide: B1 guide with G3T, T5A, T34G, G43T, C51A
modifications: listed as DNA, chemistry not fully specified
B15: cr810 (nucleic acid)
guide: B1 guide with G3T, T5A, T34G, G77C, C81G
modifications: listed as DNA, chemistry not fully specified
B16: cr355 (nucleic acid)
guide: B1 guide with G3T, T5A, T34G, T62A, A67T
modifications: listed as DNA, chemistry not fully specified
B17: cr786 (nucleic acid)
guide: B1 guide with G3T, T5A, A41T, A55G, C57G
modifications: listed as DNA, chemistry not fully specified
B18: cr930 (nucleic acid)
guide: B1 guide with G3T, T5A, A32T, T49G, C57T
modifications: listed as DNA, chemistry not fully specified
B19: cr129 (nucleic acid)
guide: B1 guide with G3T, T5A, T61G, A65G, A68C
modifications: listed as DNA, chemistry not fully specified
B20: cr149 (nucleic acid)
guide: B1 guide with G3T, T5A, G43C, C51G, G72T, C86A
modifications: listed as DNA, chemistry not fully specified
B21: cr143 (nucleic acid)
guide: B1 guide with G3T, T5A, G33C, G44A, C50T
modifications: listed as DNA, chemistry not fully specified
B22: cr244 (nucleic acid)
guide: B1 guide with G3T, T5A, T34G, C45G, G48C
modifications: listed as DNA, chemistry not fully specified
B23: cr093 (nucleic acid)
guide: B1 guide with G3T, T5C, A6G
modifications: listed as DNA, chemistry not fully specified
B24: cr350 (nucleic acid)
guide: B1 guide with G3T, T5A, T34C, G43T, C51A
modifications: listed as DNA, chemistry not fully specified
B25: cr083 (nucleic acid)
guide: B1 guide with T5G
modifications: listed as DNA, chemistry not fully specified
B26: cr106 (nucleic acid)
guide: B1 guide with G3T, T5A, T34G, G44T, C50A
modifications: listed as DNA, chemistry not fully specified
B27: cr787 (nucleic acid)
guide: B1 guide with G3T, T5A, G33C, G43C, C51G
modifications: listed as DNA, chemistry not fully specified
B28: cr035 (nucleic acid)
guide: B1 guide with G3T, T4G, T5A, A6T
modifications: listed as DNA, chemistry not fully specified
B29: cr099 (nucleic acid)
guide: B1 guide with G3T, T5A, G33T, T49G
modifications: listed as DNA, chemistry not fully specified
B30: cr497 (nucleic acid)
guide: B1 guide with G3T, T5A, A65G, C73A, G85T
modifications: listed as DNA, chemistry not fully specified

Tested on: K562 CRISPRi cells
Assay: Constant region variant library pooled growth screen, K562
Format: cell-based, human
Conditions: sgRNA constant region variants; activity relative to the original, un-modified constant region cr995
In short: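 K562 CRISPRi, duplicate transductions; puromycin 1 d 0.75 μg/mL then 1 d 0.85 μg/mL; >2000× coverage in spinner flasks; harvests at 4-8 d growth. Activity = phenotype ÷ phenotype with unmodified constant region.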

Molecule | Mean relative activity
B1 | 0.003203
B2 | 0.003196
B3 | 0.003006
B4 | 0.002959
B5 | 1.03
B6 | 0.00279
B7 | 0.002782
B8 | 0.002658
B9 | 0.002604
B10 | 0.002596
B11 | 0.002568
B12 | 0.00222
B13 | 0.002152
B14 | 0.002144
B15 | 0.002026
B16 | 0.001771
B17 | 0.001749
B18 | 0.001721
B19 | 1.029
B20 | 0.00167
B21 | 0.001524
B22 | 0.00149
B23 | 0.001456
B24 | 0.001423
B25 | 0.001403
B26 | 0.001355
B27 | 0.0008483
B28 | 0.0006927
B29 | 0.0005052
B30 | 1.028
